Test results as given in patent publication US20070225226A1, “C-REACTIVE PROTEIN APHERESIS” (The American National Red Cross, priority 2006, published 2007).
Where two headings read alike, the source gives them in different places. Non-standard residues stand in square brackets, D forms with d. No end group written: not given here. 2Nal = N[C@@H](Cc1ccc2ccccc2c1)C(=O)O

Experiments:
CRP [1] = molecular target: T1, CRP (Homo sapiens, UniProt P02741); conditions: rats undergoing acute myocardial infarction, human CRP injected; reference (24); cited from earlier work
T1 sequence (P02741 19-224): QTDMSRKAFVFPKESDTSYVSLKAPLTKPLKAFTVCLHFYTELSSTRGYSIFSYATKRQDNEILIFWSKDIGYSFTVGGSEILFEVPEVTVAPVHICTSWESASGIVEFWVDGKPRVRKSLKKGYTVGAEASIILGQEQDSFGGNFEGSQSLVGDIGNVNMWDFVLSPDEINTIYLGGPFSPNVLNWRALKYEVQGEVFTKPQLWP

CRP [2] = molecular target: T1, CRP; experiment: Ability of resins to bind endogenous CRP from serum (LDS gel / Western blot of supernatant and eluate); type: binding; parameters: from tissue; host or cells: serum; conditions: two hours at room temperature, FIG. 1; for CRP detected in the supernatant after incubation with resin: 90 μl resin, 300 μl serum containing endogenous CRP; for binding of endogenous CRP by the resin: serum containing endogenous CRP
Procedure: Several of the sequences identified in Example 2 were synthesized at gram scale to assay their ability to bind CRP. 90 μl of resin of ligands eSFAZZ (SEQ ID NO: 3), hGYIGL (SEQ ID NO: 8), vLRPWK (SEQ ID NO: 4), wZQKNH (SEQ ID NO: 7) and kZPDLH (SEQ ID NO: 6) (Z denotes 2′naphthylananine, small letters denote D amino acids, and capital letters denote L amino acids) were incubated with 300 μl of serum containing endogenous CRP, for two hours at room temperature. The supernatant was collected and the protein bound to the beads was eluted by incubation at 70° C. for ten minutes in 2×LDS sample buffer (Invitrogen). 10 μl of incubation supernatant or resin eluate was loaded per lane in an LDS gel and the proteins transferred to a nitrocellulose membrane. CRP was detected on the membrane using mouse anti-human CRP monoclonal antibody CRP-8 (Cat#C-1688, Lot# 094K4803), C=9.1 mg/ml (Sigma-Aldrich, St. Louis, Mo.) and affinity purified phosphatase labeled goat anti mouse IgG(□) human serum adsorbed (Cat#075-1802, Lot# XE084) (KPL, Gaithersburg, Md., USA).
This was confirmed by the detection of CRP in the eluates from these resins. The opposite is true for the remaining resins. […] It should be noted that all three of these ligands have a positively charged amino acid at the carboxy terminus (K or H) while none of the negative resins have the positively charged residue.

CRP [3] = molecular target: T1, CRP; experiment: Equilibrium capacity for binding CRP spiked into plasma or citrate buffer (unbound CRP measured by ELISA); conditions: 80 μl resin, two hours at room temperature
Procedure: The equilibrium capacity of wZQKNH (SEQ ID NO: 7) for binding CRP was determined with CRP spiked into 200 μl of plasma or citrate buffer. 80 μl of wZQKNH resin was mixed with the spiked materials and allowed to incubate for two hours at room temperature. The supernatant was collected and CRP remaining in the supernatant (unbound fraction) was measured by ELISA. The apparent dissociation constant (the reciprocal of the association constant) for CRP bound from buffer was 12.8×10^−9 M whereas the apparent dissociation constant for CRP bound from plasma was 370×10^−9M, indicating a level of interference in plasma, possibly arising from CRP associating with other plasma proteins which may alter its dissociation constant.

[4] = molecular target: Human CRP (C-reactive protein) (human) (UniProt P02741); experiment: Equilibrium binding of CRP spiked into plasma to 80 ul wZQKNH resin, 2 h at room temperature; unbound CRP measured by ELISA; apparent KD
[5] = molecular target: Human CRP (C-reactive protein) (human) (UniProt P02741); experiment: Equilibrium binding of CRP spiked into citrate buffer to 80 ul wZQKNH resin, 2 h at room temperature; unbound CRP measured by ELISA; apparent KD

Row | CRP detected in the supernatant after incubation with resin (CRP [2]) | binding of endogenous CRP by the resin (CRP [2]) | Compound | other results
1 | No CRP was detected | appear to bind endogenous CRP | Trp-Nal-Gln-Lys-Asn-His ([dW][2Nal]QKNH) [wZQKNH, hexamer peptide ligand on Toyopearl resin; Z denotes 2′naphthylalanine] | Kd (CRP [3]; CRP spiked into citrate buffer, read-out: apparent dissociation constant for CRP bound from buffer): 12.8 nM; Kd (CRP [3]; CRP spiked into plasma, read-out: apparent dissociation constant for CRP bound from plasma): 370 nM
2 | No CRP was detected | appear to bind endogenous CRP | VLRPWK [hexamer peptide ligand on Toyopearl resin] | –

Continued, compound first:

Row | Compound | CRP detected in the supernatant after incubation with resin (CRP [2]) | binding of endogenous CRP by the resin (CRP [2]) | other results
3 | C[N+](C)(C)CCOP(=O)([O-])OCCCCCCOP(=O)([O-])OCC[N+](C)(C)C [1,6-bis(phosphocholine)-hexane] | – | – | increase in infarct size and cardiac dysfunction produced by human CRP (CRP [1]): abrogate
4 | Lys-Nal-Pro-Asp-Leu-His ([dK][2Nal]PDLH) [kZPDLH, hexamer peptide ligand on Toyopearl resin; Z denotes 2′naphthylalanine] | No CRP was detected | appear to bind endogenous CRP | –
5 | wZQKNH (SEQ ID NO: 7) (peptide) | – | – | Kd [4]: 370 nM; Kd [5]: 12.8 nM
